Experimental data reported in patent US8461322B2, “Plant 1-deoxy-D-xylulose 5-phosphate reductoisomerase” (E I du Pont de Nemours and Company, priority 1998, dated 2013).

B1: E. coli His-DXR: His-tagged E. coli 1-deoxy-D-xylulose 5-phosphate reductoisomerase (protein)
chain: MGSSHHHHHHSSGLVPRGSHMKQLTILGSTGSIGCSTLDVVRHNPEHFRVVALVAGKNVTRMVEQCLEFSPRYAVMDDEASAKLLKTMLQQQGSRTEVLSGQQAACDMAALEDVDQVMAAIVGAAGLLPTLAAIRAGKTILLANKESLVTCGRLFMDAVKQSKAQLLPVDSEHNAIFQSLPQPIQHNLGYADLEQNGVVSILLTGSGGPFRETPLRDLATMTPDQACRHPNWSMGRKISVDSATMMNKGLEYIEARWLFNASASQMEVLIHPQSVIHSMVRYQDGSVLAQLGEPDMRTPIAHTMAWPNRVNSGVKPLDFCKLSALTFAAPDYDRYPCLKLAMEAFEQGQAATTALNAANEITVAAFLAQQIRFTDIAALNLSVLEKMDMREPQCVDDVLSVDASAREVARKEVMRLAS
modifications: His tag; His-tagged E. coli 1-deoxy-D-xylulose 5-phosphate reductoisomerase
B2: Synechocystis His-DXR: His-tagged Synechocystis 1-deoxy-D-xylulose 5-phosphate reductoisomerase (protein)
chain: MGSSHHHHHHSSGLVPRGSHMVKRISILGSTGSIGTQTLDIVTHHPDAFQVVGLAAGGNVALLAQQVAEFRPEIVAIRQAEKLEDLKAAVAELTDYQPMYVVGEEGVVEVARYGDAESVVTGIVGCAGLLPTMAAIAAGKDIALANKETLIAGAPVVLPLVEKMGVKLLPADSEHSAIFQCLQGVPEGGLRRIILTASGGAFRDLPVERLPFVTVQDALKHPNWSMGQKITIDSATLMNKGLEVIEAHYLFGLDYDHIDIVIHPQSIIHSLIEVQDTSVLAQLGWPDMRLPLLYALSWPERIYTDWEPLDLVKAGSLSFREPDHDKYPCMQLAYGAGRAGGAMPAVLNAANEQAVALFLQEKISFLDIPRLIEKTCDLYVGQNTASPDLETILAADQWARRTVLENSACVATRP
modifications: His-tag; His-tagged Synechocystis 1-deoxy-D-xylulose 5-phosphate reductoisomerase
B3: truncated rice His-DXR (SEQ ID NO:30): rice DXR protein in which the first fifty-one amino acids have been removed and replaced with a twenty amino acid His-tag (protein)
chain: MGSSHHHHHHSSGLVPRGSHMQQAPPPAWPGRAVVEPGRRSWDGPKPISIVGSTGSIGTQTLDIVAENPDKFRVVALAAGSNVTLLADQVKTFKPKLVAVRNESLVDELKEALADCDWKPEIIPGEQGVIEVARHPDAVTVVTGIVGCAGLKPTVAAIEAGKDIALANKETLIAGGPFVLPLAQKHKVKILPADSEHSAIFQCIQGLPEGALRRIILTASGGAFRDWPVDKLKEVKVADALKHPNWNMGKKITVDSATLFNKGLEVIEAHYLFGAEYDDIEIVIHPQSIIHSMIETQDSSVLAQLGWPDMRIPTLYTMSWPDRIYCSEVTWPRLDLCKLGSLTFKAPDNVKYPSMDLAYAAGRAGGTMTGVLSAANEKAVELFIDEKIGYLDIFKVVELTCDAHRNELVTRPSLEEIIHYDLWAREYAASLQPSTGLSPVPV
modifications: His-tag; His-tagged truncated rice 1-deoxy-D-xylulose 5-phosphate reductoisomerase
B4: second truncated rice His-DXR (SEQ ID NO:31): rice DXR protein in which the first seventy-six amino acids have been removed and replaced with a twenty-one amino acid His-tag (protein)
chain: MGSSHHHHHHSSGLVPRGSHMKPISIVGSTGSIGTQTLDIVAENPDKFRVVALAAGSNVTLLADQVKTFKPKLVAVRNESLVDELKEALADCDWKPEIIPGEQGVIEVARHPDAVTVVTGIVGCAGLKPTVAAIEAGKDIALANKETLIAGGPFVLPLAQKHKVKILPADSEHSAIFQCIQGLPEGALRRIILTASGGAFRDWPVDKLKEVKVADALKHPNWNMGKKITVDSATLFNKGLEVIEAHYLFGAEYDDIEIVIHPQSIIHSMIETQDSSVLAQLGWPDMRIPTLYTMSWPDRIYCSEVTWPRLDLCKLGSLTFKAPDNVKYPSMDLAYAAGRAGGTMTGVLSAANEKAVELFIDEKIGYLDIFKVVELTCDAHRNELVTRPSLEEIIHYDLWAREYAASLQPSTGLSPVPV
modifications: His-tag; His-tagged truncated rice 1-deoxy-D-xylulose 5-phosphate reductoisomerase

assay: Recombinant DXR activity, non-radioactive kinetic assay (oxidation of NADPH monitored at 340 nm); assay type: biochemical; conditions: Ni-Agarose purified His-tagged protein expressed in E. coli, 100 mM Hepes pH 7.5, 1 mM MnCl2, NADPH, 0.3 mM DXP, room temperature
Method: Recombinant His-tagged DXR proteins were purified from E. coli using Ni-Agarose. Recombinant DXR activity was measured using a non-radioactive kinetic assay (Kuzuyama et al. (1998) Tetrahedron Lett 39:7913-7916). The assay mixture contained the following: 100 mM Hepes (pH 7.5); 1 mM MnCl2; […] NADPH, DXR, and 0.3 mM 1-deoxy-D-xylulose […] (DXP). The final volume of the reaction mixture was 200 μl and the assay was initiated by adding the substrate. The assay was run at room temperature on a plate reader. The oxidation of NADPH was monitored at 340 nm. The DXR activity was determined from the slope of the kinetic curve.

Row | Molecule | DXR activity (oxidation of NADPH)
1 | B1 | DXR activity was detected
2 | B2 | DXR activity was detected
3 | B3 | no oxidation of NADPH was detected
4 | B4 | no oxidation of NADPH was detected
